Biological target: 6His-NS5 RdRp(270-900) of DENV-2 NGC strain (DENV-2 NGC strain)
Experiment: ELISA
Details: both partners purified

B1: NS3(86-100) peptide of DENV-2 (peptide)
chain: EGEWKEGEEVQVLAL
How did the IC50 turn out when B1 was run?
Its IC50 is greater than 200 µM.

— PMC12615485, “New dengue virus inhibitors targeting NS3-NS5 interaction identified by in silico screening” (Frontiers in Microbiology, 2025)
